{
  "source": "patent US20240034816A1",
  "about": "(Sanofi, published 2024)",
  "binders": {"B1": {"name": "NKp46-BCMA_Fc-ADE-DSB NKCE (bispecific antibody, human IgG1, kappa)", "light": "QTVVTQEPSLTVSPGGTVTLTCASSTGTVTPSNYANWVQQKPGQAFRGLIGDNNSRPPGTPARFSASLLGGKAALTLSGVQPEDEAEYYCALWFGNQWVFGGGTKLTVLGGGGSGGGGSDIQMTQSPSSLSASVGDRVTITCRASQDISNYLNWYQQKPGKAPKLLIYYTSRLHSGVPSRFSGSGSGTDFTFTISSLQPEDIATYFCQQGNTRPWTFGGGTKVEIKGGGGSGGGGSRTVAAPSVFIFPPSDEQLKSGTASVVCLLNNFYPREAKVQWKVDNALQSGNSQESVTEQDSKDSTYSLSSTLTLSKADYEKHKVYACEVTHQGLSSPVTKSFNRGEC", "heavy": "QVQLVQSGAEVKKPGSSVKVSCKASGYTFSDYVINWVRQAPGQGLEWMGEIYPGSGTNYYNEKFKAKATITADKSTSTAYMELSSLRSEDTAVYYCARRGRYGLYAMDYWGQGTTVTVSSQVQLVESGGGVVQPGRSLRLSCAASGFTFSNFGMHWVRQAPGRGLEWVAVIWSDETNRYYADSVKGRFTVSRDNVKSTVYLQMNSLISEDTAVYYCARDQQYCSSDSCFTWFDPWGQGTLVTVSSASTKGPSVFPLAPSSKSTSGGTAALGCLVKDYFPEPVTVSWNSGALTSGVHTFPAVLQSSGLYSLSSVVTVPSSSLGTQTYICNVNHKPSNTKVDKKVEPKSCDKTHTCPPCPAPELLAGPDVFLFPPKPKDTLMISRTPEVTCVVVDVSHEDPEVKFNWYVDGVEVHNAKTKPCEEQYNSTYRCVSVLTVLHQDWLNGKEYKCKVSNKALPAPEEKTISKAKGQPREPQVYTLPPCRDELTKNQVSLWCLVKGFYPSDIAVEWESNGQPENNYKTTPPVLDSDGSFFLYSKLTVDKSRWQQGNVFSCSVMHEALHNHYTQKSLSLSPG", "chain": "DKTHTCPPCPAPELLAGPDVFLFPPKPKDTLMISRTPEVTCVVVDVSHEDPEVKFNWYVDGVEVHNAKTKPCEEQYNSTYRCVSVLTVLHQDWLNGKEYKCKVSNKALPAPEEKTISKAKGQPREPQVCTLPPSRDELTKNQVSLSCAVKGFYPSDIAVEWESNGQPENNYKTTPPVLDSDGSFFLVSKLTVDKSRWQQGNVFSCSVMHEALHNRFTQKSLSLSPG"}},
  "key": {"[1]": {"molecular_target": "T1, recombinant human NKp46 extracellular domain (Gln22-Asn255) with C-terminal 6xHis tag (human, UniProt O76036 22-255)", "T1 construct": "range 22-255; also called huNKp46", "T1 sequence (O76036 other isoform, or with tags, fused parts or gaps limits assumed)": "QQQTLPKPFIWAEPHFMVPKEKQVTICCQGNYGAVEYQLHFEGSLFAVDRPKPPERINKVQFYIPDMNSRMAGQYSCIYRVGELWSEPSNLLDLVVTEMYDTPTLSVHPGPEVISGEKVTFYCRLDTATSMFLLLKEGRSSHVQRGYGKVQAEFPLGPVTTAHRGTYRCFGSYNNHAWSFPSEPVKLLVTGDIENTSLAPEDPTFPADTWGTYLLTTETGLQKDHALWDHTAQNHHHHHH", "experiment": "SPR (Biacore 8K), NKCE captured by anti-human Fc, antigen as analyte, 1:1 model; Experiment No 3", "protocol": "(§1) Measurements were performed in multicycle kinetics experiments for each antibody using a Biacore 8K instrument. In each multicycle experiment the antibodies were captured via an anti-hum a Fc antibody immobilized on a series S CM5 sensor chip (human antibody capture kit, Cytiva, Uppsala, Catalog No. BR1008-39).\n(§2) The antigens, diluted as described above (concentration range 0.1 nM to 50 nM), were injected at a flow rate of 60 μL/min for 240 sec followed by a dissociation phase of 400 sec. All analyte concentrations were run in duplicate together with multiple buffer blanks for double referencing. Regeneration of the capture surface was performed with regeneration solution (3 mol/L MgCl2) for 60 sec at 30 μL/min. Binding kinetics data were evaluated with the Biacore 8K Evaluation Software version 1.1.1.7442 using a 1:1 binding model with mass transport limitation."}, "recombinant human BCMA [2]": {"molecular_target": "T2, recombinant human BCMA (human, UniProt Q02223 1-54)", "experiment": "SPR (Biacore 8K), NKCE captured by anti-human Fc, antigen as analyte, 1:1 model; Experiment No 3", "protocol": "as §1, §2"}, "[3]": {"molecular_target": "T3, recombinant cynomolgus NKp46 extracellular domain with C-terminal Flag-M2 tag (cynomolgus, UniProt Q95JB9 22-254)", "T3 construct": "range 22-254; also called cyno NKp46; not shown: C-terminal Flag-M2 tag", "T3 sequence (Q95JB9 22-254)": "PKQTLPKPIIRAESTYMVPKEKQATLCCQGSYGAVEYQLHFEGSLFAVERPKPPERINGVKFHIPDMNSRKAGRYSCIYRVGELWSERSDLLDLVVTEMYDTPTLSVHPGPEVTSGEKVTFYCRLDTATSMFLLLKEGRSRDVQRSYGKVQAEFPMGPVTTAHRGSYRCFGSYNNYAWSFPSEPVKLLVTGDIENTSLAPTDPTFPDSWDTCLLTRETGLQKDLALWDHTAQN", "experiment": "SPR (Biacore 8K), NKCE captured by anti-human Fc, antigen as analyte, 1:1 model; Experiment No 3", "protocol": "as §1, §2"}, "cyno BCMA (PPB-17990) [4]": {"molecular_target": "T4, cyno BCMA (PPB-17990) (cynomolgus, UniProt A0A2K5UD97 1-53)", "T4 construct": "also called cynomolgus BCMA", "T4 sequence (A0A2K5UD97 entry or part of it)": "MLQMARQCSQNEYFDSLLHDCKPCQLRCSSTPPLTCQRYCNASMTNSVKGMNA", "experiment": "SPR (Biacore 8K), NKCE captured by anti-human Fc, antigen as analyte, 1:1 model; Experiment No 3", "protocol": "as §1, §2"}, "human CD64 (human FcγRI)": {"molecular_target": "T5, human CD64 (human FcγRI) (human, UniProt P12314 16-292, limits assumed)", "T5 construct": "also called HuFcyRI", "T5 sequence (P12314 16-292 limits assumed)": "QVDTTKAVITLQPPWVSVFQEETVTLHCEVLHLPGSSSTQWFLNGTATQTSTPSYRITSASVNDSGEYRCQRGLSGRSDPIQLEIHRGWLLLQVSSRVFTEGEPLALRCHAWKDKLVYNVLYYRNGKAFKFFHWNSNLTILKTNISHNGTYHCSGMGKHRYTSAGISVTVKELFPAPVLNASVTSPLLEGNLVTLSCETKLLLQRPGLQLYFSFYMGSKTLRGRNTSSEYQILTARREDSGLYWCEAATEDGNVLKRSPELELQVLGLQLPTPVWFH", "experiment": "SPR, fit 1:1 Binding, Exp No 1"}, "[5]": {"molecular_target": "T1, recombinant human NKp46 extracellular …", "experiment": "SPR (Biacore 8K), NKCE captured by anti-human Fc, antigen as analyte, 1:1 model; Experiment No 2", "protocol": "as §1, §2"}, "recombinant human BCMA [6]": {"molecular_target": "T2, recombinant human BCMA", "experiment": "SPR (Biacore 8K), NKCE captured by anti-human Fc, antigen as analyte, 1:1 model; Experiment No 2", "protocol": "as §1, §2"}, "[7]": {"molecular_target": "T3, recombinant cynomolgus NKp46 …", "experiment": "SPR (Biacore 8K), NKCE captured by anti-human Fc, antigen as analyte, 1:1 model; Experiment No 2", "protocol": "as §1, §2"}, "cyno BCMA (PPB-17990) [8]": {"molecular_target": "T4, cyno BCMA (PPB-17990)", "experiment": "SPR (Biacore 8K), NKCE captured by anti-human Fc, antigen as analyte, 1:1 model; Experiment No 2", "protocol": "as §1, §2"}, "[9]": {"molecular_target": "T6, human BCMA on RPMI 8226 multiple myeloma cells (human, UniProt Q02223 1-184)", "T6 construct": "whole, on cells; also called BCMA on RPMI cells", "T6 sequence (looked up)": "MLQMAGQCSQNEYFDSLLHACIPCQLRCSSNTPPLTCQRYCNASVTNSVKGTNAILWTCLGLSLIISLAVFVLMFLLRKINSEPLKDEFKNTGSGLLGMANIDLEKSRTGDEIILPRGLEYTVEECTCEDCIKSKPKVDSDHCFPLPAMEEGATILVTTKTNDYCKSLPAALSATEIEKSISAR", "experiment": "flow cytometry titration on RPMI 8226 cells, detection with goat anti-human IgG Fcγ-PE, 4-parameter fit; mean of 5 independent titrations", "protocol": "(§3) After staining, cells were resuspended in BD Cellfix and analyzed by flow cytometry. Parameters were recorded and analysed with FlowJo software. Staining EC50 values were calculated with GraphPad prism using 4 parameter logistics non-linear regression model."}, "[10]": {"molecular_target": "T7, human NKp46 on NK cells purified from PBMC of healthy donors (human, UniProt O76036 22-304)", "T7 construct": "whole, on cells; also called NKp46 on donor NK cells", "T7 sequence (O76036 22-304)": "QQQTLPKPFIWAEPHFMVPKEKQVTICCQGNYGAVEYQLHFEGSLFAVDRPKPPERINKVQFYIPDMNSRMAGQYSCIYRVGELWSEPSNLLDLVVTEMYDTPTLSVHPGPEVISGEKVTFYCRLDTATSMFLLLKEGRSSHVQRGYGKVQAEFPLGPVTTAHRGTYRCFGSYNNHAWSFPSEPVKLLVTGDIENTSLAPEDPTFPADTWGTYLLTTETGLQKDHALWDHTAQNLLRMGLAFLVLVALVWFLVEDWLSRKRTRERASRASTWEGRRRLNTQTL", "experiment": "flow cytometry titration on resting human NK cells from healthy donors, detection with goat anti-human IgG Fcγ-PE, 4-parameter fit; mean of 3 NK donors; NK cells also carry CD16a", "protocol": "as §3"}, "[11]": {"molecular_target": "T7, human NKp46 on NK cells purified from …", "experiment": "flow cytometry titration on resting human NK cells from healthy donors, detection with goat anti-human IgG Fcγ-PE; representative titration; NK cells also carry CD16a", "protocol": "as §3"}, "cynomolgus CD32a": {"molecular_target": "T8, cynomolgus CD32a (cynomolgus)", "T8 construct": "also called CyFcyRIIa", "experiment": "SPR, fit Steady State Affinity, Exp No 2"}, "[12]": {"molecular_target": "T9, human CD16b (human FcgRIIIB) (human, UniProt O75015 17-200, limits assumed)", "T9 construct": "also called HuFcyRIIIb", "T9 sequence (O75015 17-200 limits assumed)": "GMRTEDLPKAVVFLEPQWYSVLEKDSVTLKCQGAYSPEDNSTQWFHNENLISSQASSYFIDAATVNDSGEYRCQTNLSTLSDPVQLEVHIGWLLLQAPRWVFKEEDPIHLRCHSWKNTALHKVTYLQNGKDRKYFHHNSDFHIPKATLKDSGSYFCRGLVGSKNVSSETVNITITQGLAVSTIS", "experiment": "SPR, fit Steady State Affinity, Exp No 2"}, "[13]": {"molecular_target": "T7, human NKp46 on NK cells purified from …", "experiment": "flow cytometry titration on resting human NK cells from healthy donors, detection with goat anti-human IgG Fcγ-PE, 4-parameter fit; NK cells also carry CD16a", "protocol": "as §3"}},
  "note": "Values joined by “and” are separate entries in the source; they are usually repeats but may differ in a detail not shown here. Identical values can stand only once.",
  "data": [
    {"binder": "B1", "values": [
      {"measurement": "Kd", "setting": "[1]", "result": 12.5, "unit": "nM"},
      {"measurement": "koff", "setting": "[1]", "result": 0.0018, "unit": "s⁻¹"},
      {"measurement": "kon", "setting": "[1]", "result": 140000, "unit": "M⁻¹ s⁻¹"},
      {"measurement": "Kd", "setting": "recombinant human BCMA [2]", "result": 0.3, "unit": "nM"},
      {"measurement": "koff", "setting": "recombinant human BCMA [2]", "result": "5.7e-05", "unit": "s⁻¹"},
      {"measurement": "kon", "setting": "recombinant human BCMA [2]", "result": 190000, "unit": "M⁻¹ s⁻¹"},
      {"measurement": "Kd", "setting": "[3]", "result": 17.8, "unit": "nM"},
      {"measurement": "koff", "setting": "[3]", "result": 0.0033, "unit": "s⁻¹"},
      {"measurement": "kon", "setting": "[3]", "result": 190000, "unit": "M⁻¹ s⁻¹"},
      {"measurement": "Kd", "setting": "cyno BCMA (PPB-17990) [4]", "result": 0.3, "unit": "nM"},
      {"measurement": "koff", "setting": "cyno BCMA (PPB-17990) [4]", "result": "6e-05", "unit": "s⁻¹"},
      {"measurement": "kon", "setting": "cyno BCMA (PPB-17990) [4]", "result": 180000, "unit": "M⁻¹ s⁻¹"},
      {"measurement": "Kd", "setting": "human CD64 (human FcγRI)", "result": 0.32, "unit": "nM"},
      {"measurement": "Kd", "setting": "[5]", "result": 13.2, "unit": "nM"},
      {"measurement": "koff", "setting": "[5]", "result": 0.0018, "unit": "s⁻¹"},
      {"measurement": "kon", "setting": "[5]", "result": 140000, "unit": "M⁻¹ s⁻¹"},
      {"measurement": "Kd", "setting": "recombinant human BCMA [6]", "result": 0.2, "unit": "nM"},
      {"measurement": "koff", "setting": "recombinant human BCMA [6]", "result": "6.9e-05", "unit": "s⁻¹"},
      {"measurement": "kon", "setting": "recombinant human BCMA [6]", "result": 320000, "unit": "M⁻¹ s⁻¹"},
      {"measurement": "Kd", "setting": "[7]", "result": 16.2, "unit": "nM"},
      {"measurement": "koff", "setting": "[7]", "result": 0.0034, "unit": "s⁻¹"},
      {"measurement": "kon", "setting": "[7]", "result": 210000, "unit": "M⁻¹ s⁻¹"},
      {"measurement": "Kd", "setting": "cyno BCMA (PPB-17990) [8]", "result": 0.3, "unit": "nM"},
      {"measurement": "koff", "setting": "cyno BCMA (PPB-17990) [8]", "result": "5.8e-05", "unit": "s⁻¹"},
      {"measurement": "kon", "setting": "cyno BCMA (PPB-17990) [8]", "result": 180000, "unit": "M⁻¹ s⁻¹"},
      {"measurement": "EC50", "setting": "[9]", "result": 1.33, "unit": "µg/mL"},
      {"measurement": "EC50", "setting": "[10]", "result": 0.643, "unit": "µg/mL"},
      {"measurement": "EC50 (read off the curve)", "setting": "[11]", "result": "~0.9", "unit": "µg/mL"},
      {"measurement": "Kd", "setting": "cynomolgus CD32a", "result": 1440, "unit": "nM"},
      {"measurement": "Kd", "setting": "[12]", "result": 1690, "unit": "nM"},
      {"measurement": "EC50", "setting": "[13]", "result": "0.585 µg/mL and 0.863 µg/mL and 0.481 µg/mL"}
    ]}
  ]
}
